The results in this text go back to paper PMC7608589, “Divergent architecture of the heterotrimeric NatC complex explains N-terminal acetylation of cognate substrates” (Nature Communications, 2020).

Substrate in series [1]: CC(=O)SCCNC(=O)CCNC(=O)[C@H](O)C(C)(C)COP(=O)(O)OP(=O)(O)OC[C@H]1O[C@@H](n2cnc3c(N)ncnc32)[C@H](O)[C@@H]1OP(=O)(O)O
The series can be described thus: Ellman (DTNB) colorimetric acetyltransferase assay, Michaelis-Menten fit. It counts as biochemical, Saccharomyces cerevisiae. The settings on record: fixed yArl3 peptide … 1340 µM, 30–500 µM acetyl-CoA, pH 7.5, 25 °C. The source says: Ellman (DTNB) colorimetric acetyltransferase assay, Michaelis-Menten fit on NatC WT (Naa30ΔC17, full-length Naa35, Naa38ΔC11)

In series [2] the target is T1, NatC WT complex (Naa30ΔC17, full-length Naa35, Naa38ΔC11) (S. cerevisiae, UniProt Q03503 1-159; Q02197 1-733; P23059 1-77).
T1 construct: Naa30, catalytic subunit of NatC, S. cerevisiae, residues 1–159; Naa38, small auxiliary subunit of NatC, S. cerevisiae, residues 1–77; also called heterotrimeric NatC complex; not shown: His6, N-terminal, cleaved; copies: + +
T1 sequence (looked up) 1: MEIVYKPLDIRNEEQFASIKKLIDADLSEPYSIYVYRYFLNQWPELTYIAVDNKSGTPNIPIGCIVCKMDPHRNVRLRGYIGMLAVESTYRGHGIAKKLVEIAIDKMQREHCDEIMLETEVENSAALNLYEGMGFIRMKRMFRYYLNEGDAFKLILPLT
T1 sequence (looked up) 2: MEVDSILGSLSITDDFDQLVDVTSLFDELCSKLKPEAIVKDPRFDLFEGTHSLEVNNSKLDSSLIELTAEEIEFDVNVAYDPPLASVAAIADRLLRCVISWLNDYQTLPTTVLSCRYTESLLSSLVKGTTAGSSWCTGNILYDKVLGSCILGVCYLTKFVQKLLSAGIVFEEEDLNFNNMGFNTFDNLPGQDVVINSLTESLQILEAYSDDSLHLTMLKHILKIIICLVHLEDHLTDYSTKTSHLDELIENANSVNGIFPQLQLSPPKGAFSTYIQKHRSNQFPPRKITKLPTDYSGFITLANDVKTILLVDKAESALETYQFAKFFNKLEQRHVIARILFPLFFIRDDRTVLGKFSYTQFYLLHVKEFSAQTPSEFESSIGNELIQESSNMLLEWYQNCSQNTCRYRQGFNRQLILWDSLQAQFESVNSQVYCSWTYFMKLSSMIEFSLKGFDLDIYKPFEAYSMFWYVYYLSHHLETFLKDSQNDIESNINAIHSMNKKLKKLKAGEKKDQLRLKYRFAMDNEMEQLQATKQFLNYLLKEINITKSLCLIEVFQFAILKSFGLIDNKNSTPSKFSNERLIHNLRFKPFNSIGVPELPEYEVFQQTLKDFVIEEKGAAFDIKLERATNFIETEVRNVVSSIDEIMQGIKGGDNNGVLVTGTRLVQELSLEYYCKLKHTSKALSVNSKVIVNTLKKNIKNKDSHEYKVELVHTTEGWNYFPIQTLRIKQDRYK
T1 sequence (looked up) 3: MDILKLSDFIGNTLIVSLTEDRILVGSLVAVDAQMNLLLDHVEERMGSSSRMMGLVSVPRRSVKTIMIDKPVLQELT
The series can be described thus: crystal structure; purified NatC with CoA (1:3) and substrate peptide … (1:5) or … (1:3) added to the crystallization setup; 14.5–16.5% PEG 4000, 150 mM ammonium iodide, 100 mM sodium citrate pH 6.1–6.3. Particulars: both partners purified.

B1: NatC WT (Naa30ΔC17, full-length Naa35, Naa38ΔC11) (Saccharomyces cerevisiae S288C) (protein)
chain: T1 sequence (looked up) 1
notes: heterotrimer co-expressed in E. coli BL21(DE3) from pRSFDuet-1; Naa30 lacks 17 and Naa38 lacks 11 C-terminal residues; His6-tag on Naa35 cut by HRV 3C; with N-alpha-acetyltransferase 35, NatC auxiliary subunit; N-alpha-acetyltransferase 38, NatC auxiliary subunit
Turning to B1, the Michaelis constant (Km) in series [1] is given as 30 ± 6 µM.

B2: Gag peptide (MLRFVGSRRR) (peptide)
peptide: MLRFVGSRRR
notes: the N-terminal five residues of the major capsid protein (Gag) of the S. cerevisiae virus L-A; GS linker and a triple arginine to facilitate peptide solubility; Only the first six residues were modelled in the crystal; source: synthetic peptide (ProteoGenix)
Consider B2, for which, in series [2], the binding result is “binds”.
